Test results taken from the Human Domainome abundance scans (Beltran et al. 2025).

B1: Kinesin-like protein KIF16B, residues 1213 to 1273; numbered along this chain, Q96L93 (parent)
chain: ETWTVFRRYSRFREMHKTLKLKYAELAALEFPPKKLFGNKDERVIAERRSHLEKYLRDFFS

Variants of: B1
Assay: abundance fitness (aPCA) (normalised: wild type 0, dead -1); higher = more abundant; growth selection in yeast, the domain comes from the species named
Conditions: Homo sapiens

Abundance fitness, by site and new letter:
E53: N 0.292 | T 0.317 | R 0.412 | V 0.277 | F 0.243 | M 0.309 | C 0.31 | K 0.391 | S 0.414 | H 0.059 | P 0.228 | Y 0.329 | I 0.197 | W 0.378 | A 0.191 | G 0.426 | L 0.352
H51: Y -0.235 | Q 0.002 | N -0.436 | P -0.164 | C -0.359 | S -0.047 | I -0.294 | R 0.194 | K 0.376 | G 0.248 | W -0.069 | D -0.778 | L -0.098 | M -0.368 | E -0.379 | A 0.043
K54: M -0.327 | L -0.256 | W -0.476 | H -0.532 | D -0.489 | V -0.289 | I -0.314 | E -0.298 | C -0.785 | P -0.945 | A -0.251 | T -0.013 | F -0.664 | R 0.076 | S -0.174 | G -0.171 | N -0.127
R43: G 0.209 | E -0.22 | L -0.282 | Y -0.489 | I -0.227 | P -0.004 | W -0.155 | T 0.018 | V -0.099 | F -0.249 | M -0.32 | D -0.31 | N 0.137 | C -0.097 | Q 0.003 | H 0.129 | K 0.017 | A 0.033
K40: Q -0.164 | G -0.269
K34: A 0.368 | V 0.06
N39: P -0.102 | H 0.05 | Q 0.054 | M -0.063 | F -0.246 | E -0.397 | V -0.011 | T -0.291 | Y -0.347 | R 0.04 | G 0.036 | K 0.203 | A 0.174 | S -0.033 | I 0.06 | W -0.108
I45: D 0.057 | E 0.107 | A 0.177 | V 0.009 | T 0.158 | P 0.271 | L 0.051 | Q 0.174 | K 0.281 | H 0.11 | R 0.133 | W 0.35 | G 0.264 | M 0.062 | C 0.133 | N 0.031 | F 0.158 | Y -0.274
P33: L 0.366 | S 0.022 | T -0.02 | Y -0.378 | W 0.322 | V 0.17 | Q -0.429
E47: G 0.243 | C 0.038 | H 0.129 | W 0.014 | Q -0.175 | Y -0.223 | M -0.053 | N 0.099 | P 0.118 | D 0.183 | V -0.173 | I -0.2 | A -0.307 | T 0.132 | F 0.117 | R 0.099 | L -0.274 | S 0.091 | K -0.011
V44: S 0.351 | Y -0.215 | K 0.18 | R 0.117 | P 0.299 | D 0.24 | Q 0.047 | N -0.06 | T 0.263 | E -0.145 | W 0.112 | C 0.316 | G 0.188 | A 0.029
E42: N 0.306 | Q -0.056 | S 0.186 | G 0.266 | D -0.031 | L 0.164 | I 0.053 | W 0.268 | C 0.044 | R 0.122 | V -0.012 | K 0.227 | A -0.011 | F 0.224 | T 0.078 | H -0.476 | Y -0.242
A46: E 0.037 | C 0.093 | F -0.27 | K 0.186
